Target: hemocyanin from Macrobrachium acanthurus (Macrobrachium acanthurus)
Test: AUC; sedimentation velocity, HcMac at 100, 200 and 300 ug/mL, Tris-HCl 100 mmol/L with NaCl 50 mmol/L, pH 7.0, 20 °C, absorbance at 280 nm, SEDFIT c(S) and c(M); single 19S species of about 450 kDa; hexamer of monomeric subunits

A stoichiometry N of 6 was found for “hemocyanin from Macrobrachium acanthurus (natural protein)” in this work.

Source: publication PMC12108899
